B1: OR4K15 (parent)
chain: GUUAACGGUCAUAGGCCAUGGAAACUAGGAGCACCAUUUCGCUGCCAGUGAAGAAAUGAACAAAGAAAAUCUGGGCCAGGCAGGCAUCAAAAGAAAUAGUCUUGCGCUCAACCAGAAAGUCUGUAAUCAUUUUAAGGGUA

Variants of: B1
Assay: self-cleavage, relative activity (ratio to wild type); higher = more cleavage; in vitro, sequencing; the parent is a self-cleaving ribozyme

Compared with C105U U122C, C109U U127G is higher in self-cleavage: 0.11 for the first, 0.62 for the second.

First: U102C C107G
Second: U102A A135G
The self-cleavage of the first is lower: 0.01 for the first, 1.02 for the second.

Going from C109A A118C to A111U A126C, the self-cleavage falls from 0.14 to 0.06.

Going from A114G G123A to A110G U132A, the self-cleavage rises from 0.12 to 0.19.

Going from C101A A118G to U102C A125G, the self-cleavage rises from 0.08 to 1.5.

Compared with U102C G106A, U102C A118G is higher in self-cleavage: 0.02 for the first, 1.31 for the second.

Compared with U102C A118U, U100C U124A is higher in self-cleavage: 1.08 for the first, 2.17 for the second.

Going from A110G A126G to G104A, the self-cleavage falls from 0.1 to 0.04.

G104U and G104C are the same in self-cleavage: 0.02 for the first, 0.02 for the second.

Compared with A110U A118G, A110U A118U is higher in self-cleavage: 0.72 for the first, 0.75 for the second.

Compared with U108A U122C, G106C U127C is lower in self-cleavage: 0.04 for the first, 0 for the second.

First: U100C U132A
Second: U100C U132G
The self-cleavage of the first is lower: 1.03 for the first, 2.82 for the second.

Going from A114C A117G to U103C G136U, the self-cleavage rises from 0.05 to 1.12.

Compared with U108C G137A, C113U U132A is higher in self-cleavage: 0.01 for the first, 0.06 for the second.

First: A111G U127C
Second: A111G U127G
The self-cleavage of the first is lower: 0.01 for the first, 0.02 for the second.

Compared with A111G U127A, A110G G136A is higher in self-cleavage: 0.01 for the first, 0.09 for the second.

Compared with A111U A114U, U103C G138C is higher in self-cleavage: 0.02 for the first, 0.95 for the second.

Going from U108C C128U to A114C U124C, the self-cleavage falls from 0.04 to 0.03.

First: A111G G136U
Second: C109U A114G
The self-cleavage of the first is lower: 0.02 for the first, 0.2 for the second.

Going from U100A U139A to C113A, the self-cleavage falls from 1.29 to 0.03.

Going from C113U to C113G, the self-cleavage falls from 0.08 to 0.01.

Going from U100C U108A to U102G U120A, the self-cleavage rises from 0.02 to 0.77.

First: A111U U139A
Second: A110U A135G
The self-cleavage of the first is lower: 0.16 for the first, 1.63 for the second.

First: A111G U139C
Second: A111G U139G
The self-cleavage of the first is lower: 0.01 for the first, 0.02 for the second.

First: U102A G138A
Second: C101A A114G
The self-cleavage of the first is higher: 0.55 for the first, 0.02 for the second.

Going from A110G U124A to A110G U124C, the self-cleavage rises from 0.09 to 0.14.

Compared with A114G U120A, G106A A126G is lower in self-cleavage: 0.2 for the first, 0 for the second.

Going from A110U U131C to U108C A110G, the self-cleavage falls from 0.65 to 0.01.

Going from U108C A110C to U103A U120C, the self-cleavage rises from 0 to 0.34.

First: U103C G104U
Second: A114G C128U
The self-cleavage of the first is lower: 0.03 for the first, 0.11 for the second.

C107U C121U and A111C U132C are the same in self-cleavage: 0.01 for the first, 0.01 for the second.

First: U102A A116G
Second: G106C A129U
The self-cleavage of the first is higher: 0.18 for the first, 0 for the second.

First: U108C U130A
Second: A110G G138U
The self-cleavage of the first is lower: 0 for the first, 0.13 for the second.

Going from A110G A129U to A110G A129G, the self-cleavage rises from 0.08 to 0.11.

Going from U102C A126C to C109U A126G, the self-cleavage falls from 1.47 to 0.14.

Compared with U103C U120A, A114G A116U is lower in self-cleavage: 1.55 for the first, 0.05 for the second.

First: G106A U132C
Second: U102C A129U
The self-cleavage of the first is lower: 0.01 for the first, 1.23 for the second.

Going from U103C U131C to U108A U132C, the self-cleavage falls from 0.49 to 0.03.

Going from U108A U132A to A114G A118U, the self-cleavage rises from 0.01 to 0.04.

First: A114G A118C
Second: A110G G137A
The self-cleavage of the first is lower: 0.11 for the first, 0.18 for the second.

Going from U108A to U108C, the self-cleavage falls from 0.02 to 0.01.

First: U108G
Second: C101A A117G
The self-cleavage of the first is lower: 0.02 for the first, 0.13 for the second.

First: A110U G137A
Second: U108C A125U
The self-cleavage of the first is higher: 1.55 for the first, 0.01 for the second.

Going from U103A G138A to G106A U131C, the self-cleavage falls from 0.68 to 0.03.

First: U108C U133A
Second: U108C U133C
The self-cleavage of the first is lower: 0.01 for the first, 0.02 for the second.

Going from U108A U139A to A110C U122G, the self-cleavage rises from 0.04 to 0.56.

Going from C101U U108C to U108G U133C, the self-cleavage rises from 0.01 to 0.02.

First: U102C C128U
Second: U102C C128A
The self-cleavage of the first is lower: 1.62 for the first, 2.11 for the second.

First: A114C U127C
Second: A114G A135U
The self-cleavage of the first is lower: 0 for the first, 0.15 for the second.

Compared with A114G A135G, U102G A117G is lower in self-cleavage: 0.93 for the first, 0.37 for the second.

First: C112A A140G
Second: C112U A140U
The self-cleavage of the first is higher: 0.02 for the first, 0.01 for the second.

G106U U127C and A111G A126U are the same in self-cleavage: 0.01 for the first, 0.01 for the second.

Going from C109U A125G to A111G U122C, the self-cleavage falls from 0.17 to 0.01.

First: C105A C112U
Second: G106A U124C
The self-cleavage of the first is lower: 0 for the first, 0.01 for the second.

Going from A110U U122C to U102A U120C, the self-cleavage falls from 0.92 to 0.37.

First: U102A U120A
Second: A114C U122G
The self-cleavage of the first is higher: 1.01 for the first, 0.01 for the second.

Compared with A114C U122A, U102C A117G is higher in self-cleavage: 0.04 for the first, 2.72 for the second.

Going from U102C A117U to U108C C109U, the self-cleavage falls from 0.83 to 0.01.

A111G A140G and C112G U124C are the same in self-cleavage: 0 for the first, 0 for the second.

Compared with U102A A125G, G106C A116G is lower in self-cleavage: 0.42 for the first, 0.01 for the second.

Compared with A111U A117G, C105U A111U is lower in self-cleavage: 0.06 for the first, 0.01 for the second.

First: U108C A126C
Second: U102A U122C
The self-cleavage of the first is lower: 0.01 for the first, 0.55 for the second.

First: A110G U139C
Second: U108C A135G
The self-cleavage of the first is higher: 0.17 for the first, 0.01 for the second.

Compared with U100C U102A, C112G A135U is lower in self-cleavage: 2.36 for the first, 0.01 for the second.

Going from U102A A110G to A110C A117G, the self-cleavage rises from 0.1 to 0.64.

Compared with C113A U120C, U102A C107U is lower in self-cleavage: 0.02 for the first, 0.01 for the second.

First: A110U A114U
Second: A110U A114G
The self-cleavage of the first is lower: 0.04 for the first, 0.49 for the second.

Going from U108C A117U to U102A A118G, the self-cleavage rises from 0.01 to 0.84.

Compared with A110G A111G, U102A A126G is higher in self-cleavage: 0.02 for the first, 0.43 for the second.

Going from U102C U124A to U103A A110U, the self-cleavage falls from 0.97 to 0.62.

Compared with U103A A110G, C113A A114G is lower in self-cleavage: 0.2 for the first, 0.01 for the second.

Going from A111U U120C to A110G A116G, the self-cleavage rises from 0.03 to 0.06.

Going from U102C A111U to U103C A125G, the self-cleavage rises from 0.04 to 0.69.

First: U100C A111C
Second: U100C A111U
The self-cleavage of the first is lower: 0.01 for the first, 0.18 for the second.

First: G106A U122A
Second: U102C C105U
The self-cleavage of the first is lower: 0.01 for the first, 1.01 for the second.

Going from A110C U132A to C107U U122A, the self-cleavage falls from 0.25 to 0.

Going from A110G A118G to U102C U130C, the self-cleavage rises from 0.08 to 1.64.

Going from A111U A129G to A114C G137A, the self-cleavage falls from 0.19 to 0.07.

Compared with A110G A140C, A110G A140G is higher in self-cleavage: 0.14 for the first, 0.15 for the second.

Compared with C105U U120C, G104A A140G is higher in self-cleavage: 0.05 for the first, 0.09 for the second.

Compared with U108C A129G, G104A A110U is higher in self-cleavage: 0.01 for the first, 0.02 for the second.

First: A110C U131A
Second: U102C A140G
The self-cleavage of the first is lower: 0.17 for the first, 2.39 for the second.

Compared with G106C U108C, U103C A126G is higher in self-cleavage: 0 for the first, 0.35 for the second.

For U100C G136A, the self-cleavage was 2.45.

— the RNAGym collection of RNA variant scans (doi:10.7554/elife.90254)
